Measured values taken from patent publication US20070026059A1, “Ligands for orphan nuclear hormone receptor steroidogenic factor-1 (SF-1)” (priority 2005, published 2007).
Ends that are not written are not given here. * marks the point of attachment. Biotin = O=C1N[C@H]2[C@H](CS[C@H]2CCCCC(=O)*)N1

Assays:
[1] = target: T1, SF-1 LBD / TIF2 co-activator motif interaction (Mus musculus, UniProt P33242); test: AlphaScreen assay of SF-1 binding to TIF2 co-activator LxxLL motif in absence or presence of phospholipids; type: biochemical; conditions: for EC50: in the presence of 10% ethanol, FIG. 5E, read-out: potency (EC50) for recovering the SF-1/TIF2 binding activity
T1 construct: The mouse SF1 LBD (residues 221-462) was expressed as a 6×His fusion protein; made in house; host or cells: E. coli BL21 (DE3), pET24a
T1 sequence (P33242 221-462): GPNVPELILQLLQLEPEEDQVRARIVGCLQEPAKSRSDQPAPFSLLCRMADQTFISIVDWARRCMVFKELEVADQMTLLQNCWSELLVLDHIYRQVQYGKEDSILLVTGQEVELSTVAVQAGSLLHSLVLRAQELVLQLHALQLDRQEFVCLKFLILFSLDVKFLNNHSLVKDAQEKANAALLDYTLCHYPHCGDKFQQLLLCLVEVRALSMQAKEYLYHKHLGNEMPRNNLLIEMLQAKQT
Experimental: The mouse SF1 LBD (residues 221-462) was expressed as a 6×His fusion protein from the expression vector pET24a (Novagen). BL21 (DE3) cells transformed with this expression plasmid were grown in LB broth at 16° C. to an OD600 of ˜1.0 and induced with 0.1 mM isopropylthio-β-D-galactoside (IPTG) for 16 hours. Cells were harvested, resuspended in 400 ml extract buffer (20 mM Tris pH8.0, 150 mM NaCl, 10% glycerol) per 6 l. of cells, and passed 3 times through a French Press with pressure set at 1000 pa. The lysate was centrifuged at 20,000 rpm for 30 minutes and the supernatant was loaded onto a 50 ml Ni-NTA column (Qiagen). The column was washed with extract buffer and the protein eluted with 300 ml gradient to buffer B (10 mM Tris, PH8.0, 150 mM NaCl, 10% glycerol and 500 mM imidazole). The protein was further purified with a Q-Sepharose column (Amersham Biosciences). A typical yield of the purified protein was about 100 mg from each liter of cells. To prepare the protein-cofactor complex, we added a 2-fold excess of the SHP peptide ([…]; SEQ ID NO:1) to the purified protein, followed by filter concentration to 15 mg/ml.
(§1) All phospholipids were purchased from Sigma and stored according to the manufacturer's instructions. The binding of the various peptide motifs to SF-1 was determined by AlphaScreen™ assays from Perkins-Elmer as described recently for other nuclear receptors (Xu et al., 2002). Wild type SF-1 and the mutated LBDs were purified as 6×His tag fusion proteins for the assays. The experiments were conducted with approximately 20-30 nM receptor LBD and 20 nM of biotinylated TIF2 peptide or other co-activator peptides in the presence of 5 μg/ml donor and acceptor beads in a buffer containing 50 mM MOPS, 50 mM NaF, 0.05 mM CHAPS, and 0.1 mg/ml bovine serum albumin, all adjusted to pH 7.4. An AlphaScreen kit for detection of hexa-His was used in this experiment and the binding signals for the TIF2/SF-1 interaction were detected in the absence or the presence of exogenous phospholipids. EC50/IC50 values for the effects of phospholipids on TIF2 binding to SF-1 were determined from a nonlinear least square fit of the data based on an average of three repeated experiments with standard errors typically less than 10% of measurements.

[2] = target: T2, SF-1 LBD (Mus musculus, UniProt P33242); test: AlphaScreen binding of LxxLL / co-repressor motif peptides to purified SF-1 LBD; conditions: FIG. 1A
T2 construct: The mouse SF1 LBD (residues 221-462) was expressed as a 6×His fusion protein; made in house; host or cells: E. coli BL21 (DE3), pET24a
T2 sequence (P33242 221-462): as above
Experimental: A. Binding of various LxxLL motifs to the purified SF-1 LBD as measured by AlphaScreen™ assays. The background reading of either SF-1 or the peptides alone is less than 200. The peptide sequences are listed in experimental procedures. The results are the average of three experiments (error bars=standard deviation).
as §1
The peptides with an N-terminal biotinylation are listed below.

[3] = test system: mutated SF-1 LBD (pocket residue to tryptophan mutants); test: AlphaScreen assay: effect of 12PE on restoring co-activator binding of mutated SF-1 receptors; type: biochemical, mouse; conditions: 12PE 1.25 μM, FIG. 6E
Experimental: E. Effects of 12PE (1.25 μM) on restoring TIF2 binding activity of mutated SF-1 receptors.
as §1, with “EC50/IC50 values for the effects of phospholipids on TIF2 binding to SF-1 were determined from a nonlinear least square fit of the data based on an average of three repeated experiments with standard errors typically less than 10% of measurements.” left out
The SF-1 pocket comprises 51 residues that form intimate contacts with the bound phospholipid ligand. […] All mutated receptors expressed well and were readily purified for AlphaScreen assays that measure SF-1 recruitment of three different co-activator motifs that show interactions with SF-1 in FIG. 1A.

CCCCCCCCCCCCCC(=O)OC[C@H](COP(=O)(O)OCCN)OC(=O)CCCCCCCCCCCCC [14PE, 1,2-dimyristoyl-sn-glycero-3-phosphoethanolamine]
EC50 [1]: 64 nM

CBP: N-terminally biotinylated peptide SGNLVPDAASKHKQLSELLRGGSG (SEQ ID NO:8) (Biotin-SGNLVPDAASKHKQLSELLRGGSG; listed as Mus musculus)
interaction of peptide motif with purified SF-1 [2]: not

CCCCC/C=C\C/C=C\CCCCCCCC(=O)OC[C@H](COP(=O)([O-])OCC[N+](C)(C)C)OC(=O)CCCCCCC/C=C\C/C=C\CCCCC [18PCD, 1,2-dilinoleonyl-sn-glycerol-3-phosphocholine]
effect on high basal SF-1/TIF2 interaction ([1]; absence of ethanol, FIG. 5D): disrupted the high basal interactions of SF-1 with TIF2 in a dose dependent manner | IC50 ([1]; absence of ethanol, high basal interaction, FIG. 5D, read-out: IC50 for inhibiting the SF-1/TIF2 interactions): 100 to 300 nM

first LxxLL motif of SHP: N-terminally biotinylated peptide PCQGSASHPTILYTLLSPGP (SEQ ID NO:5) (Biotin-PCQGSASHPTILYTLLSPGP; listed as Mus musculus)
interaction of peptide motif with purified SF-1 [2]: able to interact

TIF2 peptide: N-terminally biotinylated peptide QEPVSPKKKENALLRYLLDKDDTKD (SEQ ID NO:2), third LxxLL motif of co-activator TIF2
AlphaScreen signal on incubation of SF-1 with peptide ([2]; background of SF-1 or peptide alone less than 200): ~45,000 photo counts

TRAP220: N-terminally biotinylated peptide GHGEDFSKVSQNPILTSLLQITGN (SEQ ID NO:7) (Biotin-GHGEDFSKVSQNPILTSLLQITGN; listed as Mus musculus)
interaction of peptide motif with purified SF-1 [2]: not

N-COR: N-terminally biotinylated co-repressor motif peptide GHSFADPASNLGLEDIIRKALMGSF (SEQ ID NO:9)
interaction of peptide motif with purified SF-1 [2]: did not interact

SRC-1 second LxxLL motif: N-terminally biotinylated peptide SPSSHSSLTERHKILHRLLQEGSP (SEQ ID NO:3) (Biotin-SPSSHSSLTERHKILHRLLQEGSP; listed as Mus musculus)
interaction of peptide motif with purified SF-1 [2]: able to interact

SRC-1 fourth LxxLL motif: N-terminally biotinylated peptide QKPTSGPQTPQAQQKSLLQQLLTE (SEQ ID NO:4) (Biotin-QKPTSGPQTPQAQQKSLLQQLLTE; listed as Mus musculus)
interaction of peptide motif with purified SF-1 [2]: able to interact

CCO [ethanol]
loss of the SF-1/TIF2 binding activity ([1]; 10% ethanol added to the binding buffer): > 90%

second SHP LxxLL motif: N-terminally biotinylated peptide VABAPVPSILKKILLEEPNS (SEQ ID NO:6)
interaction of peptide motif with purified SF-1 [2]: not

SMRT: N-terminally biotinylated co-repressor motif peptide QAVQEHASASTNMGLEAIIRKALMGKY (SEQ ID NO:10) (Biotin-QAVQEHASASTNMGLEAIIRKALMGKY; listed as Mus musculus)
interaction of peptide motif with purified SF-1 [2]: did not interact

CCCCCCCCCCCCCCCC(=O)OC[C@H](COP(=O)([O-])OCC[N+](C)(C)C)OC(=O)CCCCCCCCCCCCCCC [16PC, 1,2-dihexadecanoyl-sn-glycero-3-phosphocholine]
EC50 [1]: 80 to 120 nM

CCCCCCCCCCCC(=O)OC[C@H](COP(=O)(O)OCCN)OC(=O)CCCCCCCCCCC [12PE, 1,2-Didodecanoyl-sn-glycero-3-phosphoethanolamine]
EC50 [1]: 66 nM | restoration of co-activator binding of SF-1 mutants A270W, L266W and L348W [3]: completely restored | restoration of co-activator binding of SF-1 mutants L345W, V349W and A434W [3]: cannot be restored
